This note sets out measurements from IntAct's records for PubMed 26388029.

The target of one experiment is ubp1_human USP1 (UniProt O94782).
ubp1_human USP1, sequence (O94782 whole entry): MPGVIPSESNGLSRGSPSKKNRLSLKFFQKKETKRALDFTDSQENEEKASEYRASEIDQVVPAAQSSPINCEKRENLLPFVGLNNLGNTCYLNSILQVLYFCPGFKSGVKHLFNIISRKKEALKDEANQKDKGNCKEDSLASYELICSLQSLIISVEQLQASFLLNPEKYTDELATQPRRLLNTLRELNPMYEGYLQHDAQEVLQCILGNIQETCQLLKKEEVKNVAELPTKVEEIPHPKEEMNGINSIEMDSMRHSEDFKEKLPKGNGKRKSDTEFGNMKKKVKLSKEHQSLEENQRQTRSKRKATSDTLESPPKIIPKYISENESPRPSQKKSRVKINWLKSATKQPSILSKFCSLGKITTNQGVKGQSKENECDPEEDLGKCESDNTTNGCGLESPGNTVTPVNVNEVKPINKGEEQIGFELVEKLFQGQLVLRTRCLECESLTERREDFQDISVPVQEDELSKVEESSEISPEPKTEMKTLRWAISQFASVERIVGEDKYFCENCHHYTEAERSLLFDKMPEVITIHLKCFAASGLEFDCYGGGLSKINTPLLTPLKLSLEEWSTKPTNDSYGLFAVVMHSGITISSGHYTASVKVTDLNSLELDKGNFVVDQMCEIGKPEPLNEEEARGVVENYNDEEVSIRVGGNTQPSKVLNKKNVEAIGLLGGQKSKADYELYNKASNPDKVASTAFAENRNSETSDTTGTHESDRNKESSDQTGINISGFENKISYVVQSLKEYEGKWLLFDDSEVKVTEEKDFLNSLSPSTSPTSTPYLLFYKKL

USP46, P62068-1, sequence (P62068 whole entry): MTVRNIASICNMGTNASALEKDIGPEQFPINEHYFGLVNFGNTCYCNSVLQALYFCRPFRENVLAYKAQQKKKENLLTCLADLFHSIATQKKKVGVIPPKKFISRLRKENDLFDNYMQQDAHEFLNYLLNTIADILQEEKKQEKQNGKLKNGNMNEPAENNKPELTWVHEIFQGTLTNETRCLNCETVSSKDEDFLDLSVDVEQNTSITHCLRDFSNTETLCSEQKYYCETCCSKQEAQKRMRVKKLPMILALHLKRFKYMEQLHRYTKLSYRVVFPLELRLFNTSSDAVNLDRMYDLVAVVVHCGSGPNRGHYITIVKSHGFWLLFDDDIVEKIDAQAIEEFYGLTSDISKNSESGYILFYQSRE

For the substance “WD repeat-containing protein 48 (Homo sapiens), Q8TAF3-1 K214E;W256A;R272D”, the “effect of a mutation on the interaction” value with ubp1_human USP1 is listed as “disrupting interaction strength”; with USP46, P62068-1 it was “disrupting interaction strength”.

Regarding “WD repeat-containing protein 48 (Homo sapiens), Q8TAF3-1 S170Y”, in the experiment with USP46, P62068-1, the “effect of a mutation on the interaction” value is given as “decreasing interaction strength”.
